The values that follow come from patent publication US20230285581A1.

Test [1] addresses full length human MSR1 with a C-terminal Myc tag on HEK293.Myc.hMSR1 cells (human) (UniProt P21757). The experiment in a line: ECL cell binding, HEK293.Myc.hMSR1 cells.
Test [2] has as its target human MSR1 extracellular domain expressed with a N-terminal nonahistidine tag (His9-hMSR1; R&D Systems, Cat #2708-MS) (human) (UniProt P21757). The experiment in a line: competition ELISA; 1 µM antibody, competitor 10 nM Ox-LDL, plate-coated His9-hMSR1. Background: In an ELISA, binding on a coated surface is turned into a signal by an enzyme label.
Test [3] has the same target. The experiment in a line: competition ELISA; 100 nM antibody, competitor Ac-LDL, plate-coated His9-hMSR1.
Test [4] has as its target endogenously expressed human MSR1 on PMA-treated THP-1 cells (human) (UniProt P21757). The experiment in a line: ECL cell binding, PMA-treated THP-1 cells.
For test [5], the target named is mouse MSR1 on RAW264.7 cells (mouse) (UniProt P30204). The experiment in a line: flow cytometry, RAW264.7 cells, 10 ug/mL.
Chain of mouse MSR1 on RAW264.7 cells (mouse) (P30204 whole entry, the tested form may be a part): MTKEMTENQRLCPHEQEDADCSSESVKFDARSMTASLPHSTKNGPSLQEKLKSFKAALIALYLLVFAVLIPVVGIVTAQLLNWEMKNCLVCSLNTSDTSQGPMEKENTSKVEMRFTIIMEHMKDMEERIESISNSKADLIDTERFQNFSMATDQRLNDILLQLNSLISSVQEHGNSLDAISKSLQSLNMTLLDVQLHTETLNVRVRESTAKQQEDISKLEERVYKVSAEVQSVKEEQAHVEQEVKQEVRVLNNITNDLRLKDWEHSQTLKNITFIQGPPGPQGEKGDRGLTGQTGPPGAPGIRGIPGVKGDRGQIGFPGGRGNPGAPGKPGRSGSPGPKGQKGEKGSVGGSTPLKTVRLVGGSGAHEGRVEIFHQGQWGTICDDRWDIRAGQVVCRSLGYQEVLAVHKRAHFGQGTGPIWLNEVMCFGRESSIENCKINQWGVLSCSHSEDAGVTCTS
Test [6] addresses human MSR1 extracellular domain expressed with a N-terminal nonahistidine tag (His9-hMSR1; R&D Systems, Cat #2708-MS) (human) (UniProt P21757). The experiment in a line: competition ELISA; 300 nM antibody, competitor biot-AGE-BSA, plate-coated His9-hMSR1.
Test [7] concerns the target full length monkey MSR1 on HEK293.mfMSR1 cells (Macaca fascicularis). The experiment in a line: ECL cell binding, HEK293.mfMSR1 cells.
Test [8] deals with human MSR1 extracellular domain expressed with a N-terminal nonahistidine tag (His9-hMSR1; R&D Systems, Cat #2708-MS) (human) (UniProt P21757). The experiment in a line: competition ELISA; 500 nM antibody, competitor 10 nM Ox-LDL, plate-coated His9-hMSR1.
Chain of human MSR1 extracellular domain expressed with a N-terminal nonahistidine tag (His9-hMSR1; R&D Systems, Cat #2708-MS) (human) (P21757 other isoform, or with tags, fused parts or gaps): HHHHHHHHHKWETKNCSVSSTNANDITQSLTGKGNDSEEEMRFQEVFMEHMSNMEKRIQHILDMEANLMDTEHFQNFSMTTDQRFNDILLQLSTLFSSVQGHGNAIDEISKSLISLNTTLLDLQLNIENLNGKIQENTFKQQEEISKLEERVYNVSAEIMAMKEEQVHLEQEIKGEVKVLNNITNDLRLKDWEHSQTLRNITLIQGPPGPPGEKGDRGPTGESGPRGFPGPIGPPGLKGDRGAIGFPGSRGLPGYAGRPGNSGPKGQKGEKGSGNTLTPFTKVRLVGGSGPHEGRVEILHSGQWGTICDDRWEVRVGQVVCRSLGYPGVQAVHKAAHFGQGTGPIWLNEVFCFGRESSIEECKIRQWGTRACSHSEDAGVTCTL

Chain of full length monkey MSR1 on HEK293.mfMSR1 cells (Macaca fascicularis) (chain, as listed by the source): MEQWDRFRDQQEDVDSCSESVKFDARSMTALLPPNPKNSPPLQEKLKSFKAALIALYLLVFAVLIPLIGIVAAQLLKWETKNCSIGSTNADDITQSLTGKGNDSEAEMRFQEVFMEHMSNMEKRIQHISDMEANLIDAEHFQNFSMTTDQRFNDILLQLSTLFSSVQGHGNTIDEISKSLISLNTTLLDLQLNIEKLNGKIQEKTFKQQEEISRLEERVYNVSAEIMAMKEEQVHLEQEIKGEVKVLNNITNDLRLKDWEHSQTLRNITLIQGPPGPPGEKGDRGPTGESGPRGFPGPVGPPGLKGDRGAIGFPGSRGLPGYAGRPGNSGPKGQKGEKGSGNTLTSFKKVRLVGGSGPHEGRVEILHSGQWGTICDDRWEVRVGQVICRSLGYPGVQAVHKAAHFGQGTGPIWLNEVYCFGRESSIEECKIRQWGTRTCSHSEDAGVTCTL
Chain of endogenously expressed human MSR1 on PMA-treated THP-1 cells (human) (P21757 whole entry): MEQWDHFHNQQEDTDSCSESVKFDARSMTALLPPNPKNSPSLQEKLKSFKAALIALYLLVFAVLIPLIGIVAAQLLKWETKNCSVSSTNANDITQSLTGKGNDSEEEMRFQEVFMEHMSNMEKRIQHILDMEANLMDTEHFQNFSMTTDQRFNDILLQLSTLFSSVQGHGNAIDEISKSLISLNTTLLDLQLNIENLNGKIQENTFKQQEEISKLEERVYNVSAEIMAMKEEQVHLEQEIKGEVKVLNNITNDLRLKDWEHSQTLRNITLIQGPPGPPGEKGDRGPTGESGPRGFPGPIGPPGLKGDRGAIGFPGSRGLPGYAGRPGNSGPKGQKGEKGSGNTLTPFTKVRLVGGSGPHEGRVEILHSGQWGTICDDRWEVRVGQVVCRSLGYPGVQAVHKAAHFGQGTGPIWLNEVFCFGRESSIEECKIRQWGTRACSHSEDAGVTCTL
Chain of full length human MSR1 with a C-terminal Myc tag on HEK293.Myc.hMSR1 cells (human) (P21757 whole entry, the tested form may be a part): as the sequence (P21757 whole entry) above

B1: H1H27729P-N297Q (antibody, human IgG1, V domains shown)
VH: QVQLVESGGGLVKPGGSLRLSCAASGFIFSDYYMSWIRQAPGKGLEWVSYISSSGTTIYGDSVKGRFTMSRDNAKNSLYLQMNSLRAEDTAVYYCARNYALFDYWGQGTLVTVSS
VL: DIQMTQSPSSLSASVGDRVTITCQASQDISKYLNWYQQKPGKAPKLLIYYTSNLETGVPSRFSGSGSGTDFTFTISSLQPEDIATYYCHQSDYLPFTFGPGTKVDIKR
Turning to B1, the ratio of 11 nM antibody binding signal (RLU) to isotype control in test [1] worked out at 17; in test [4], 8; in test [7], 6. For the same molecule, the % Blocking in test [2] came to 36%; in test [3], 8%; in test [6], 15%. Moreover, the MFI in test [5] is 3480. In test [5], this molecule came in with a S/N of 1.

B2: H1H21234N-N297Q (antibody, human IgG1, V domains shown)
VH: QVQLQESGPGLVKPSETLSLTCTVTGGSISRNYWSWIRQPPGKGLEWIGYIYYSGSIDYNPSLKSRVTISVDTSKNQFSLKLSSMTAADTAVYYCARDRWNWKYGMDVWGQGTTVIVSS
VL: EIVLTQSPGTLSLSPGERATLSCRASQTVRNNYLAWYHQKPGQAPRLLIYGASSRATGIPDRFSGSGSGTDFTLTISRLEPEDFTVYYCHQYGNSPWTFGQGTKMEIKR
For B2, the figures for the ratio of 11 nM antibody binding signal (RLU) to isotype control in test [1], in test [4] and in test [7] were 43, 25 and 35, respectively. The % Blocking in test [3] was 75%; in test [8], 49%; in test [6], -27%. In test [5], the MFI was 7050. In test [5], this molecule returned a S/N of 3.

B3: H1H21234N (antibody, human IgG1, V domains shown)
VH: QVQLQESGPGLVKPSETLSLTCTVTGGSISRNYWSWIRQPPGKGLEWIGYIYYSGSIDYNPSLKSRVTISVDTSKNQFSLKLSSMTAADTAVYYCARDRWNWKYGMDVWGQGTTVIVSS
VL: EIVLTQSPGTLSLSPGERATLSCRASQTVRNNYLAWYHQKPGQAPRLLIYGASSRATGIPDRFSGSGSGTDFTLTISRLEPEDFTVYYCHQYGNSPWTFGQGTKMEIKR
Consider B3, for which the ratio of 11 nM antibody binding signal (RLU) to isotype control in test [1] turned out to be 32; in test [4], 18; in test [7], 31. Also, the % Blocking in test [3] stood at 70%; in test [8], 98%; in test [6], 21%.

B4: H2aM25695N (antibody, mouse IgG2a, V domains shown)
VH: QVQLQESGPGLVKPSETLSLTCTVTGGSISRNYWSWIRQPPGKGLEWIGYIYYSGSINYNPSLKSRVTISVDMSKNQFSLKLNSVTAADTAVYYCARDRWNWKYGMDVWGQGTTVIVSS
VL: EIVLTQSPGTLSLSPGERATLSCRASQTVRNSYLAWYHQKPGQAPRLLIYGASSRATGIPDRFSGSGSGTDFTLTISRLEPEDFAVYYCQQYGSSYWTFGQGTKMEIKR
B4: the ratio of 11 nM antibody binding signal (RLU) to isotype control in test [1] was 35; in test [4], 8; in test [7] it was 45. In addition, the % Blocking is 65% in test [3], 96% in test [8] and 16% in test [6].

B5: H1H21227N-N297Q (antibody, human IgG1, V domains shown)
VH: QVQLVQSGAEVKKPGASVKVSCKVSGYTLTELSIHWVRQVPGKGLEWMGGFDPEEGETIFAQEFRDRVTLTEDTSPDTAYMELSSLKSEDAAVYYCTTPRYCNNGICYDYWGQGTLVTVSS
VL: DIQMTQSPSSLSASVGDRVTITCRASQSISNYLNWYQQKPGKAPKLLIYTASSLQSGVPSRFSGSGSGTDFTLTISSLQTEDFATYYCQQSYSNFPITFGQGTRLEIKR
As to B5, the results for the ratio of 11 nM antibody binding signal (RLU) to isotype control in test [1], in test [4] and in test [7] were 37, 5 and 23, respectively. The figures for the % Blocking in test [3], in test [8] and in test [6] were 105%, 97% and 96%, respectively. In test [5], this molecule came in with an MFI of 12800. The same molecule came in with a S/N in test [5] of 5.

B6: H1H21231N-N297Q (antibody, human IgG1, V domains shown)
VH: EVQLVESGGGLVQPGGSLRLSCAASGFTFSDHYMDWVRQAPGKGLEWVGRTRNKANSHTTEYTASVTGRFTISRDDSRNSLYLQMNSLKTEDTAVYYCVRAGIIGTLFDYWGQGTLVTVSS
VL: DIQMTQFPSSLSASVGDRVTITCRASQSISSFLNWFQQKPGKAPKFLIYAASSLQSGVPSRFSGSGSGTDFTLTISSLQPEDFATYYCQQSYSSPPITFGQGTRLEIKR
Turning to B6, the ratio of 11 nM antibody binding signal (RLU) to isotype control in test [1] worked out at 64; in test [4], 45; in test [7] it was 69. The % Blocking in test [3] is -60%; in test [8], 26%; in test [6] it was -50%. The MFI in test [5] was 3580. In test [5], this molecule gave a S/N of 1.

B7: H1H21227N (antibody, human IgG1, V domains shown)
VH: QVQLVQSGAEVKKPGASVKVSCKVSGYTLTELSIHWVRQVPGKGLEWMGGFDPEEGETIFAQEFRDRVTLTEDTSPDTAYMELSSLKSEDAAVYYCTTPRYCNNGICYDYWGQGTLVTVSS
VL: DIQMTQSPSSLSASVGDRVTITCRASQSISNYLNWYQQKPGKAPKLLIYTASSLQSGVPSRFSGSGSGTDFTLTISSLQTEDFATYYCQQSYSNFPITFGQGTRLEIKR
B7: the ratio of 11 nM antibody binding signal (RLU) to isotype control in test [1] came out at 37; in test [4] it was 7; in test [7], 26. Moreover, the % Blocking was determined as 105% in test [3], 100% in test [8] and 99% in test [6].

B8: H1H21227N-N297D (antibody, human IgG1, V domains shown)
VH: QVQLVQSGAEVKKPGASVKVSCKVSGYTLTELSIHWVRQVPGKGLEWMGGFDPEEGETIFAQEFRDRVTLTEDTSPDTAYMELSSLKSEDAAVYYCTTPRYCNNGICYDYWGQGTLVTVSS
VL: DIQMTQSPSSLSASVGDRVTITCRASQSISNYLNWYQQKPGKAPKLLIYTASSLQSGVPSRFSGSGSGTDFTLTISSLQTEDFATYYCQQSYSNFPITFGQGTRLEIKR
In the case of B8, the results for the ratio of 11 nM antibody binding signal (RLU) to isotype control in test [1], in test [4] and in test [7] were 34, 6 and 25, respectively. In addition, the results for the % Blocking in test [3], in test [8] and in test [6] were 101%, 99% and 97%, respectively.

B9: H1H21231N (antibody, human IgG1, V domains shown)
VH: EVQLVESGGGLVQPGGSLRLSCAASGFTFSDHYMDWVRQAPGKGLEWVGRTRNKANSHTTEYTASVTGRFTISRDDSRNSLYLQMNSLKTEDTAVYYCVRAGIIGTLFDYWGQGTLVTVSS
VL: DIQMTQFPSSLSASVGDRVTITCRASQSISSFLNWFQQKPGKAPKFLIYAASSLQSGVPSRFSGSGSGTDFTLTISSLQPEDFATYYCQQSYSSPPITFGQGTRLEIKR
Turning to B9, the values for the ratio of 11 nM antibody binding signal (RLU) to isotype control in test [1], in test [4] and in test [7] were 61, 42 and 75, respectively. For the same molecule, the % Blocking is -62% in test [3], 22% in test [8] and -44% in test [6].
